We go through 1 substance from PMC5680779.

The target in this experiment is HIV-1 Integrase (IN) from NL4-3, Flag-tagged (HIV-1 NL4-3). Kind of experiment: AlphaScreen or HTRF; HTRF-based IN-IN multimerization assay with Flag-tagged and His-tagged IN from NL4-3; with the small molecule MUT-A, signal compared to the IN-IN signal without MUT-A. In general terms: Bead proximity is the source of the signal in Alpha formats.

In turn, “HIV-1 Integrase (IN) from NL4-3, Flag-tagged (enzyme)” had a maximum multimerization signal plateau with MUT-A (percent of the IN-IN signal without MUT-A) of 600%.
